Results taken from patent US20180237511A1 (Sanofi, published 2018).
Read-outs that look alike come from different tables or passages of the source.

Key:
[1] = molecular target: T1, human laminin G-like 4 and 5 domains of laminin-2 (hLG-4/5), soluble (human, UniProt P24043 2729-3122, biotinylated in the ELISA of Example 6); test: SPR (Biacore) kinetics, antibody as ligand on the chip, hLG4/5 monomer in flow, fit 1:1 Binding
T1 construct: range 2729-3122; also called human LG-4/5; hLG4/LG5; not shown: Avi tag and HPC4 tag left after TEV cleavage of the N-terminal mIgG2a fusion partner
T1 sequence (looked up): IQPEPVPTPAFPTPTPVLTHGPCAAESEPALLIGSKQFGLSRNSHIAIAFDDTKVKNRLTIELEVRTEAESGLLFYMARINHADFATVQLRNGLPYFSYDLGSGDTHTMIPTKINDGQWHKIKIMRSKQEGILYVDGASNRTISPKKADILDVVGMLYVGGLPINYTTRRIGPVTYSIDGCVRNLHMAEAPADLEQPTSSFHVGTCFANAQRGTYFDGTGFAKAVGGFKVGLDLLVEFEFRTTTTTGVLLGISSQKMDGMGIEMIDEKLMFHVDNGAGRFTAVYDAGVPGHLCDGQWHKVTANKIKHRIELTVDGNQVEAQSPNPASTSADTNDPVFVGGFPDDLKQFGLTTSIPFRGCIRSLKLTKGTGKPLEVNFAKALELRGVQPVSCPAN

[2] = molecular target: T2, human beta-DG fused to the human hIgG1 Fc antibody region (hbeta-DG-hFc) (human, UniProt Q14118 654-749, limits assumed); test: double deck sandwich ELISA: plate coated with human LG-4/5, then mAb, then hbeta-DG-hFc, HRP anti-hFc
T2 construct: not shown: human IgG1 Fc region
T2 sequence (looked up): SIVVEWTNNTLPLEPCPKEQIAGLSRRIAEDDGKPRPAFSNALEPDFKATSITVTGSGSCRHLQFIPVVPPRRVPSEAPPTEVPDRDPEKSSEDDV
Experimental: (§1) 96-well plates were coated with 50 ng human LG-4/5 and blocked with 5% fetal bovine serum in PBS. Each well was incubated with 1 μg of the generated bispecific antibodies (murine IgG backbone). After 2 hours, wells were washed with PBS and re-incubated with 16 ng to 1 μg per well of human beta-DG fused to the human hIgG1 Fc antibody region (hbeta-DG-hFc). After 2 hours, wells were washed with PBS, incubated with a HRP conjugated anti-hFc secondary antibody for 45 minutes, washed again with PBS, and developed for colorimetric measuring.
(§2) Colorimetric signals could be detected only when hLG-4/5 and hbeta-DG-hFc were both added in the assay (FIG. 7). No signal was detected when parental monoclonal antibodies were used or when hbeta-DG-hFc was omitted. Three bispecific antibodies (biAbs), T1T2, T5T6, and C5C6, had the anticipated signal indicating simultaneous binding to both targets. The parental anti-LG4/5 or anti-beta-DG mAbs, or biAbs without beta-DG-hFc in the 2nd step were all negative in this assay.

[3] = molecular target: T3, human laminin G-like 5 domain of laminin-2 (hLG-5) (human, UniProt P24043 2936-3122, soluble biotinylated protein (Avi tag)); test: SPR (Biacore) kinetics; mAb immobilized, hLG-5 in flow
T3 construct: The construct used for the crystal structure with C21 Fab is not described; the same entry is used; also called human LG-5; human LG5; not shown: N-terminal Avi and HPC4 tags
T3 sequence: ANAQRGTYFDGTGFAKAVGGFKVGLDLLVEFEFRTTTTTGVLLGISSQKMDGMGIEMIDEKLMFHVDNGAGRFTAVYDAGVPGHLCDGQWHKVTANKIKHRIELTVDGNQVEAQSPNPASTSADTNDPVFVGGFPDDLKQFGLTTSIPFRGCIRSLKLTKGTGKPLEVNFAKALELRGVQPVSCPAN

[4] = molecular target: murine laminin G-like 5 domain of laminin-2 (mLG-5) (mouse) (UniProt Q60675); test: SPR (Biacore) kinetics; mAb immobilized, mLG-5 in flow
[5] = molecular target: T4, human beta-dystroglycan extracellular domain (soluble) (human, UniProt Q14118 654-749); test: sequential SPR (Biacore): antibody immobilised on a CM5 chip, human LG-4/5 and then human beta-DG flowed over
T4 construct: extracellular domain; The expression construct of soluble human beta-DG is not described (only the mouse one); also called hBeta-DG; hbeta-DG
T4 sequence (looked up): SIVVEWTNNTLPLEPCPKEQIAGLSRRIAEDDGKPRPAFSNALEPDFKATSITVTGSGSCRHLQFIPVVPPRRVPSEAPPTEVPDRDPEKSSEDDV
Experimental: Parental monoclonal antibodies (AS19, C3 and C21) and three bispecific antibodies (AS19×C3 and AS30×C3 in TBTI, and AS30×C3 in CODVIg) were each immobilized onto individual CM5 Series S Biacore chips (GE Healthcare). Human or murine LG-4/5, followed in sequence by human or murine beta-DG, was flown over each chip and binding was assessed.
Parental mAbs to LG-4/5 or beta-DG and biAbs of anti-LG4/5 and beta-DG were captured onto biacore chips, and then flowed with human LG4/5 and human beta-DG sequentially to determine their concurrent bindings to both antigens. […] In contrast, parental monoclonal antibodies were only able to bind to one target, either LG-4/5 (C3 and C21 in FIGS. 6A & 6B) or beta-DG (AS19 in FIGS. 6A & 6B).

[6] = molecular target: T5, murine laminin G-like 4 and 5 domains of laminin-2 (mLG-4/5), soluble (mouse, UniProt Q60675 2725-3118); test: SPR (Biacore) kinetics, antibody as ligand on the chip, mLG4/5 monomer in flow, fit 1:1 Binding
T5 construct: range 2725-3118; also called murine LG-4/5; not shown: Avi tag and HPC4 tag left after TEV cleavage of the N-terminal mIgG2a fusion partner
T5 sequence (looked up): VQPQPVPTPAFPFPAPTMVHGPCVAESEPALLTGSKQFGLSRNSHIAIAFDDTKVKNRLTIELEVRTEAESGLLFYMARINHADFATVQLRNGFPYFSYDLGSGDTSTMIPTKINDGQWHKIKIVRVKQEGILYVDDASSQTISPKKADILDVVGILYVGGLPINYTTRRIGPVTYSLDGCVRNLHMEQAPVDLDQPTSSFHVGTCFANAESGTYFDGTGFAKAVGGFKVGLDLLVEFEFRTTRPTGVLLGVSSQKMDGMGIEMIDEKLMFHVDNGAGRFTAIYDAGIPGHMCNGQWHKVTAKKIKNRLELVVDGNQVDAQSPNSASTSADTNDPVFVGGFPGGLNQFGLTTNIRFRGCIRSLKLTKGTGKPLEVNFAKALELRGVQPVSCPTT

[7] = molecular target: T1, human laminin G-like 4 and 5 domains of …; test: SPR (Biacore) kinetics, antibody as ligand on the chip, hLG4/5 monomer in flow, fit 1:1 Binding; remark: listed apart in the source
[8] = molecular target: T5, murine laminin G-like 4 and 5 domains …; test: SPR (Biacore) kinetics, antibody as ligand on the chip, mLG4/5 monomer in flow, fit 1:1 Binding; remark: listed apart in the source
[9] = molecular target: T2, human beta-DG fused to the human hIgG1 …; test: double deck sandwich ELISA: plate coated with human LG-4/5, then biAb, then hbeta-DG-hFc, HRP anti-hFc; a signal needs both bindings at once
Experimental: as §1, §2

[10] = molecular target: T4, human beta-dystroglycan extracellular …; test: SPR (Biacore) kinetics; mAb immobilized, hBeta-DG in flow
[11] = molecular target: T6, murine beta-dystroglycan extracellular domain (mbeta-DG ECD), HPC4 tagged (mouse, UniProt Q62165 652-746); test: SPR (Biacore) kinetics; mAb immobilized, mBeta-DG in flow
T6 construct: range 652-746; Made in E. coli as MBP fusion; MBP cleaved off with TEV protease; also called mbeta-DG-HPC4; murine beta-DG; not shown: C-terminal HPC4 tag
T6 sequence (looked up): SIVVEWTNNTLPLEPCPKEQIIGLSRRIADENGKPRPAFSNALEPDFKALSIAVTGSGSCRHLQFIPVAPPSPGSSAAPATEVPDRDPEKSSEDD

B1: anti-laminin-2 antibody derived from hybridoma clone C21 (antibody, V domains shown)
VH: EVMLVESGGGLVKPGGSLKLSCAASGFTFSSYTMSWVRQTPEKRLEWVATISSGGDNTYYPDSVKGRFTISRDNAKNNLYLQMSSLRSEDTALYYCARFDYGSSLDCWGQGTTLTVSS
VL: DIVLTQSPATLSVTPGDSVSLSCRASQSISNYLHWYQQKSHESPRLLIKYASQSISGIPSRFSGSGSGTDFTLSINSVETEDFGMYFCQQSKSWPRTFGGGTELEIK
notes: Hybridoma monoclonal antibody (detected with anti-mouse IgG); also called anti-laminin-2(C21)
Kd [1]: 2.8 nM | koff [1]: 0.00131 s⁻¹ | kon [1]: 467000 M⁻¹ s⁻¹ | binding result [2]: no binding (tested: 1000 ng/ml) | Kd [3]: 2.8 nM | koff [3]: 0.00131 s⁻¹ | kon [3]: 467000 M⁻¹ s⁻¹ | Kd [4]: 3.04 nM | koff [4]: 0.00253 s⁻¹ | kon [4]: 813000 M⁻¹ s⁻¹ | binding result [5]: no binding | Kd [6]: 3.04 nM | koff [6]: 0.00253 s⁻¹ | kon [6]: 813000 M⁻¹ s⁻¹

B2: anti-laminin-2 antibody derived from hybridoma clone C3 (antibody, V domains shown)
VH: DVMLVESGGDLVKPGGSLKLSCAASGFTFSSYTMSWVRQTPEKRLEWVASISSGGGNTYYPDSVKGRFTISRDNAKNNLYLQMSSLRSEDTALYYCARFDYGSSLDSWGQGTTLTVSS
VL: DIVLTQSPATLSVTPGDSVSLSCRASQSISNNLHWYQQKSHESPRLLIKYASQSISGIPSRFSGSGSGTDFTLSINSVETEDFGMYFCQQSKNWPRTFGGGTKLEIK
notes: Hybridoma monoclonal antibody (detected with anti-mouse IgG); also called C03; anti-laminin-2(C3)
binding result [2]: no binding (tested: 1000 ng/ml) | koff [7]: 0.0013 s⁻¹ | kon [7]: 488000 M⁻¹ s⁻¹ | Kd [3]: 2.66 nM | koff [3]: 0.0013 s⁻¹ | kon [3]: 488000 M⁻¹ s⁻¹ | Kd [4]: 8.27 nM | koff [4]: 0.00429 s⁻¹ | kon [4]: 519000 M⁻¹ s⁻¹ | binding result [5]: no binding | koff [8]: 0.00429 s⁻¹ | kon [8]: 519000 M⁻¹ s⁻¹

B3: bispecific antibody T1T2: anti-beta-DG(AS19) x anti-laminin-2(C3), TBTI with (GGGGS)2 linker (bispecific antibody)
heavy: QVQLQQSGPELVKPGASVKMSCKASGFTFTDSVISWVKQRTGQGLEWIGEIYPGSGSIYYNEKFKGKATLTADKSSNTAYMQLRSLTSEDSAVYFCAMRRSYWGQGTLVTVSAGGGGSGGGGSDVMLVESGGDLVKPGGSLKLSCAASGFTFSSYTMSWVRQTPEKRLEWVASISSGGGNTYYPDSVKGRFTISRDNAKNNLYLQMSSLRSEDTALYYCARFDYGSSLDSWGQGTTLTVSS
light: DVLMTQTPLSLPVSLGDQASISCRSSQSIVHSNGNTYLEWYLQKPGQSPKLLIYKVSNRFSGVPDRFSGSGSGTDFTLKISRVEAEDLGVYYCFQGSHVPLTFGAGTKLELKGGGGSGGGGSDIVLTQSPATLSVTPGDSVSLSCRASQSISNNLHWYQQKSHESPRLLIKYASQSISGIPSRFSGSGSGTDFTLSINSVETEDFGMYFCQQSKNWPRTFGGGTKLEIK
notes: also called AS19xC3 in TBTI; biAb (AS19xC3); not shown: IgG1 heavy chain constant region: murine IgG1 (GenBank AAA75163.1) or human IgG1 (Genbank Q569F4); murine IgG backbone i; kappa light chain constant region: murine kappa chain (Genbank BAB33404) or human kappa chain (Genbank Q502W4)
binding result [5]: binds | binding result [9]: binds

B4: anti-beta-DG antibody derived from phage display clone B04 (antibody, V domains shown)
VH: QVQLQQSGGGLVQPGGSLRLSCAASGFTFSSYAMSWVRQAPGKGLEWVSAISGSGGSTYYADSVKGRFTVSRDNSKNTLYLQMNSLRAEDTAVYYCARLGYCSSTSCYLSAFDIWGQGTMVTVSS
VL: EIVLTQSPSTLSASVGDRVTITCRASQSISSWLAWYQQKPGKAPKLLIYDASSLESGVPSRFSGSGSGTEFTLTISSLQPDDFATYYCQQYNSYPLTFGGGTKVEIK
notes: Phage display clone
koff [10]: 0.0016 s⁻¹ | kon [10]: 62000 M⁻¹ s⁻¹ | Kd [11]: 25.7 nM | koff [11]: 0.0016 s⁻¹ | kon [11]: 62000 M⁻¹ s⁻¹
